US8841274B2, “Protein arginine N-methyltransferase-5 method of cancer treatment” (priority 2009, dated 2014)

Tests used:
[1] = molecular target: T1, DP-1 (Homo sapiens, UniProt Q14186); experiment: Co-immunoprecipitation of ectopic E2F-1 with DP-1 in U2OS cells; format: cell-based; conditions: expression vector transfected into U2OS cells, HA11 IP
T1 construct: endogenous in cells; host or cells: U2OS
T1 sequence (Q14186 1-410): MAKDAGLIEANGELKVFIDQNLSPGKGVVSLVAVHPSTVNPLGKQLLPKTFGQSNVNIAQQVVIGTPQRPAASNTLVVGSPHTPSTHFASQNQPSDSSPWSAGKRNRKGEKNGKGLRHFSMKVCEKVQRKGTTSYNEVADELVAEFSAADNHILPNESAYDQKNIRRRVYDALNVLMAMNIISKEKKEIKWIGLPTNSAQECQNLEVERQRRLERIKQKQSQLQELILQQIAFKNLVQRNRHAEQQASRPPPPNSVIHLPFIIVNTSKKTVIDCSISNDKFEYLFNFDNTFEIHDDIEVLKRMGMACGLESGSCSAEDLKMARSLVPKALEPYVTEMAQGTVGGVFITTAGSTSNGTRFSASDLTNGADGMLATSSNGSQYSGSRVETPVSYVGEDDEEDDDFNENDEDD
From the text: To establish whether E2F-1 was able to bind to PRMT5 in cells, the interaction between ectopic wild-type E2F-1 or KKK with PRMT5 was studied. […] Either a wild-type E2F-1 expression vector or a KKK expression vector was transfected into U2OS cells, and HA11 antibody was used for immunoprecipitation (IP) followed by immunoblotting with HA11 (E2F-1), PRMT5 or DP-1 as indicated. The level of input (In) protein is indicated. […] In contrast, binding to DP-1 was equivalent for both wild-type E2F-1 and KKK. […] Further, the RGRGR motif is necessary for the interaction, which also encompasses the site of PRMT5 methylation.
Cells were either left untransfected or transfected with expression vectors as indicated. At 48 h post transfection, cells were harvested in TNN buffer (50 mM Tris-HC1 [pH 7.4], 150 mM NaCl, 5 mM EDTA, 0.5% Ipegal, 50 mM NaF, 0.2 mM sodium orthovanadate and protease inhibitor cocktail (1 mM PMSF, leupeptin [1 μg/ml], aprotinin [1 μg/m1], and pepstatin A [1 μg/ml])) and rotated at 4° C. for 30 min to 1 h. The cell lysate was then homogenised, centrifuged at 11000 rpm for 10 min to remove cell debris and the supernatant collected. All lysates were normalized for protein concentration and, where appropriate, for transfection by β-galactosidase activity. […] Enhanced chemi-luminescence (Pierce Biotechnology, Rockford, Ill.) was used to visualize antibody binding.

[2] = molecular target: T2, PRMT5 (Homo sapiens, UniProt O14744); experiment: In vitro methyltransferase assay of E2F-1 proteins; format: biochemical; set-up: made in house; host or cells: U2OS cells (transient transfection, anti-Flag immunoprecipitation, elution); conditions: about 1 μg protein, 3H labeled SAM; mutants compared with wild-type E2F-1
Description: To assess whether the RGRGR motif was a direct target for PRMT5 methylation, a series of mutant derivatives of E2F-1 were made in which each arginine (R) residue was substituted with a lysine residue (K; FIG. 1a), and the ability of the mutant derivative to be methylated in vitro then assessed. […] In FIG. 1b(i) each of the indicated proteins (about 1 μg) was used in the methylation reaction. In vitro methylated samples were analysed by SDS-PAGE as described below. E2F-1 is indicated. In FIG. 1b(ii) samples in FIG. 1b(i) were counted (3H cpm as indicated). Histones treated with PRMT5 served as the positive control. The data shown provide one example taken from two different experiments.
Flag-PRMT5 plasmid was transfected into U2OS cells for 48 h. Cells were lysed and Flag-PRMT5 was immunoprecipitated with agarose beads and then eluted. The elute was mixed with recombinant substrates (GST fusion proteins or histones) in methylation reaction buffer (50 mM Tris, 0.1 mM EDTA, 50 mM NaCl) with ^3H labeled SAM (as —CH3 group donor) to a volume of 40 μl and incubated at 30° C. for 90 min. Half of the reactions were then spotted onto p81 membrane circles (Whatman) and air dried. The membranes were then washed three times, 5 min each in 50 ml of wash buffer (46 mM NaHCO3, 4 mM Na2CO3, pH 9.2). After washing briefly with acetone, membranes were air dried, placed in scintillation vials, immersed in scintillation fluid (Beckman Coulter) and disintegrations per minute (DPM) measured in a scintillation counter. The other half of the reactions were run on SDS-PAGE gel and used to detect ^3H auto-radioisotope/methylation signal.
Target sequence in this assay (O14744 whole entry): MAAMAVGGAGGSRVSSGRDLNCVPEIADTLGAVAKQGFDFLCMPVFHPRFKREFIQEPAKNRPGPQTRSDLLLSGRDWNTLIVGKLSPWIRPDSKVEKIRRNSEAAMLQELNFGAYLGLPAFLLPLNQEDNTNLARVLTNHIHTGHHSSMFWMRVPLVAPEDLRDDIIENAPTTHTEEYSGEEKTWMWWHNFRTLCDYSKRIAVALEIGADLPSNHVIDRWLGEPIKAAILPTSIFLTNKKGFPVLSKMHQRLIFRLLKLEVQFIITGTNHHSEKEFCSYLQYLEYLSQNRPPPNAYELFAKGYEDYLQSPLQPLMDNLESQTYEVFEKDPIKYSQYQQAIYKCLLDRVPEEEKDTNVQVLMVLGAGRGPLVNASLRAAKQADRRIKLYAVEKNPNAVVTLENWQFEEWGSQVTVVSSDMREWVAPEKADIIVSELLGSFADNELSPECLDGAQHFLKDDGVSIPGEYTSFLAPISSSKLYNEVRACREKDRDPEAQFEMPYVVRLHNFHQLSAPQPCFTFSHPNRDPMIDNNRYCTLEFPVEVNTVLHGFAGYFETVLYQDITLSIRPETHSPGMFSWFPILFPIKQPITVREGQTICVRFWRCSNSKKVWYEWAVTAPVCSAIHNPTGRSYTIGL
Target sequence in this assay (Q9BQA1 whole entry partner): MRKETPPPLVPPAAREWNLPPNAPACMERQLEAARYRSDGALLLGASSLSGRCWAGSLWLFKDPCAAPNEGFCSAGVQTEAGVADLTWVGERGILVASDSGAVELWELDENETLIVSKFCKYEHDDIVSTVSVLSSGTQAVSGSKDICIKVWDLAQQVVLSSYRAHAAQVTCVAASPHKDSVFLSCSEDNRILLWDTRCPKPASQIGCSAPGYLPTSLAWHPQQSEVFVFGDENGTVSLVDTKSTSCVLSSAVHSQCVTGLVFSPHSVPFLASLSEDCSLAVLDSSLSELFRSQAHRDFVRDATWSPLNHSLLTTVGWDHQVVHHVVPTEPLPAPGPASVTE

[3] = molecular target: T2, PRMT5; experiment: GST binding assay with U2OS cell lysate, PRMT5 immunoblot; set-up: The indicated GST proteins were incubated with U2OS cell lysate; endogenous in cells; host or cells: U2OS; conditions: GST-E2F-1 proteins incubated with U2OS cell lysate
Description: It was then assessed whether E2F-1 could interact with PRMT5 and thereafter the role of each R residue in mediating the interaction. […] The indicated GST proteins were incubated with U2OS cell lysate, and bound proteins immunoblotted using anti-GST (for input GST), DP-1 or PRMT5 antibodies. Binding to DP-1, the major heterodimeric partner for E2F-1 (Stevens and La Thangue 2003), served as a control since it bound equally to each of the E2F-1 proteins.
GST or GST tagged proteins (10 μg each) were incubated with agarose beads and damaged or undamaged U2OS cell lysates for 3 h. Beads were then washed with TNN buffer 3 times. SDS sample buffer was added to beads and samples were analysed by immunoblotting.
Target sequence in this assay (O14744 whole entry): as the sequence (O14744 whole entry) above

## KKK: methylation-defective E2F-1 protein containing the mutations R109K, R111K and R113K
[1]
  binding to DP-1 in cells: equivalent
[2]
  in vitro methylation by PRMT5: could not be methylated by PRMT5
[3]
  binding to PRMT5: completely devoid of PRMT5 binding
